In patent US20200362046A1 (published 2020):
Changes are numbered by the printed parent chain.

B1: SEQ ID NO 35 (designed binder)
chain: MGSWSEFYNRLDAIESRLLALGGSEAELALFEIQIARFEKVLQAYKGKGNPEVEALRGEARAIFAELYAYRHN
B2: SEQ ID NO 36 (designed binder)
chain: MGSWYEFYNRLYAIEIRLYALGGSEAELAAFEKEIAAFESELQAYKGKGNPEVERLRVRAAKIRVILQAYRHN
B3: SEQ ID NO 37 (designed binder)
chain: MGSWLWFKIFLAEIKYFLEALGGSEAELAAFDFEIHAFHVELFAYKGKGNPEVEVLREVAAEIRWDLQAYRHN
B4: SEQ ID NO 60 (designed binder)
chain: MGSWYEFTVRLEAIHERLKALGGSEAELAAFEKEIAAFESELQAYKGKGNPEVEILRDDAAFIRRFLQAYRHN
notes: also called DBDpp; library F3
B5: SEQ ID NO 61 (designed binder)
chain: B4 chain with T8D, V9D, E12N, E16D, K19Q, I55D
notes: also called DBDpp; library F3

Experiments:
[1] = molecular target: KIR-Fc (purified recombinant "target"-Fc protein); assay: phage ELISA on purified target-Fc; signal over non-specific control (e.g., IgG1-Fc); average where several clones share the sequence
[2] = molecular target: KIR-Fc (purified recombinant "target"-Fc protein); assay: phage ELISA on purified target-Fc; signal over non-specific control (e.g., IgG1-Fc)
[3] = molecular target: T1, PD-L1-Fc (purified recombinant "target"-Fc protein) (UniProt Q9NZQ7 19-238); assay: as above
T1 construct: also called B7-H1; not shown: Fc part of the fusion
T1 sequence (Q9NZQ7 19-238 limits assumed): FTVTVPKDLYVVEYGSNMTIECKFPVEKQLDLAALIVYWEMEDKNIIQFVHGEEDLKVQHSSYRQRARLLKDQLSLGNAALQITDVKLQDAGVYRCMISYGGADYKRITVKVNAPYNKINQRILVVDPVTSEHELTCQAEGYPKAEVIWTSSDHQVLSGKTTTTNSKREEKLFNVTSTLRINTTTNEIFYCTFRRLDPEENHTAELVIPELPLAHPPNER
Experimental: Selections were also performed using F1, F2, F3. C1 & C2 trinucleotide phosphoramidite libraries. In most cases, libraries were pooled prior to use in selection. By combining equal volumes of the individual libraries. Pool F (libraries F1, F2 and F3) and Pool C (libraries C1 and C2) were generated. These libraries were used in selections for DBDpp binders to 4-1BB/CD137 as well as a larger panel of purified recombinant “target”-Fc proteins, including CD47, CTLA4. DR5, KIR. LAG3, OX40, PD1, PD-L1 and TIM3. (Many of these targets are considered immuno-regulatory factors (Pardoll et al., Nat. Rev. Cancer 12:252-264 (2012)). After incubation of the target with the pools of DBDpp phage libraries, bound phage-target complexes were captured and separated from unbound phage with protein A beads (target proteins were Fc fusions). Alter three rounds of selection, rescued phage clones were screened by ELISA for binding to the selected target.
For each target, approximately 90 DBDpp phage clones were screened by ELISA for binding to the target protein and as well as a non-specific control (e.g., IgG1-Fc). […] In some instances, for the ELISA screening plate in which the majority of DBDpp clones were positive, the entire plate was sequenced.

| Binder | ELISA ratio [1] | ELISA ratio [3] [ratio] | also measured |
| --- | --- | --- | --- |
| B1 | 8.4 |  |  |
| B2 | 4.24 |  |  |
| B3 |  |  | ELISA ratio [2]: 4.17 |
| B4 |  | 17.3 |  |
| B5 |  | 12.2 |  |
